Experimental data from patent US20150105326A1 (SEOUL NATIONAL UNIVERSITY SNU R AND D FOUNDATION, published 2015).

Experiments:
[1] = target: T1, EZH2 H689A mutant (catalytically inactive mutant, MT) (UniProt Q15910 1-746); experiment: binding of EZH2 WT or MT with RORα in cell extracts (FIG. 15)
T1 construct: also called EZH2 MT; H689A mutant (MT) of EZH2

[2] = target: T2, Enhancer of Zeste Homolog 2 lysine methyltransferase (EZH2) wild type (UniProt Q15910 1-746); experiment: co-immunoprecipitation of endogenous proteins, HEK-293 cells with MG132 (FIG. 3)
T2 construct: Endogenous (HEK-293) or overexpressed, in cell extracts; also called EZH2 WT
T2 sequence (Q15910 whole entry): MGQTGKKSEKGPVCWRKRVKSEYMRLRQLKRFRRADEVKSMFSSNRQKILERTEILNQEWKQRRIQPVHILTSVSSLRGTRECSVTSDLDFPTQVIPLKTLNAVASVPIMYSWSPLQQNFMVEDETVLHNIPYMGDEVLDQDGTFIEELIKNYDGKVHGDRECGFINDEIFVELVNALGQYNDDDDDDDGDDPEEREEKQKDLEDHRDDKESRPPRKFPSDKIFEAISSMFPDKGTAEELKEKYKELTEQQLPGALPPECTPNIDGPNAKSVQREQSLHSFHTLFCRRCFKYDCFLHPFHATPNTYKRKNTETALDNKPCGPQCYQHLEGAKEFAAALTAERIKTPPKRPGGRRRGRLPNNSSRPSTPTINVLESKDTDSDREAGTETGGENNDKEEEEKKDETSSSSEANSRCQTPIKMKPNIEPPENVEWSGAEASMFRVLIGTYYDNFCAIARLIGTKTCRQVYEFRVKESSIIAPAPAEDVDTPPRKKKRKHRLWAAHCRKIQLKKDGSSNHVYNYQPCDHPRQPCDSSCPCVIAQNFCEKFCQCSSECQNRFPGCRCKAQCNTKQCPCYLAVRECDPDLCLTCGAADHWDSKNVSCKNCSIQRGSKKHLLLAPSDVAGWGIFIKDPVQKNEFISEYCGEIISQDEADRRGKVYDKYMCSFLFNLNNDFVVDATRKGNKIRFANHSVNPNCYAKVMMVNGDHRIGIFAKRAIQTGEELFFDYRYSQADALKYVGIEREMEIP

[3] = target: T3, DDB1-CUL4-associated factor 1 adaptor (DCAF1) (UniProt Q9Y4B6 1-1507); experiment: co-immunoprecipitation, HEK-293 cells with 20 µM MG132 (FIG. 23 legend)
T3 construct: Endogenous or overexpressed in HEK-293 cells, in cell extracts; also called VprBP
T3 sequence (Q9Y4B6 whole entry): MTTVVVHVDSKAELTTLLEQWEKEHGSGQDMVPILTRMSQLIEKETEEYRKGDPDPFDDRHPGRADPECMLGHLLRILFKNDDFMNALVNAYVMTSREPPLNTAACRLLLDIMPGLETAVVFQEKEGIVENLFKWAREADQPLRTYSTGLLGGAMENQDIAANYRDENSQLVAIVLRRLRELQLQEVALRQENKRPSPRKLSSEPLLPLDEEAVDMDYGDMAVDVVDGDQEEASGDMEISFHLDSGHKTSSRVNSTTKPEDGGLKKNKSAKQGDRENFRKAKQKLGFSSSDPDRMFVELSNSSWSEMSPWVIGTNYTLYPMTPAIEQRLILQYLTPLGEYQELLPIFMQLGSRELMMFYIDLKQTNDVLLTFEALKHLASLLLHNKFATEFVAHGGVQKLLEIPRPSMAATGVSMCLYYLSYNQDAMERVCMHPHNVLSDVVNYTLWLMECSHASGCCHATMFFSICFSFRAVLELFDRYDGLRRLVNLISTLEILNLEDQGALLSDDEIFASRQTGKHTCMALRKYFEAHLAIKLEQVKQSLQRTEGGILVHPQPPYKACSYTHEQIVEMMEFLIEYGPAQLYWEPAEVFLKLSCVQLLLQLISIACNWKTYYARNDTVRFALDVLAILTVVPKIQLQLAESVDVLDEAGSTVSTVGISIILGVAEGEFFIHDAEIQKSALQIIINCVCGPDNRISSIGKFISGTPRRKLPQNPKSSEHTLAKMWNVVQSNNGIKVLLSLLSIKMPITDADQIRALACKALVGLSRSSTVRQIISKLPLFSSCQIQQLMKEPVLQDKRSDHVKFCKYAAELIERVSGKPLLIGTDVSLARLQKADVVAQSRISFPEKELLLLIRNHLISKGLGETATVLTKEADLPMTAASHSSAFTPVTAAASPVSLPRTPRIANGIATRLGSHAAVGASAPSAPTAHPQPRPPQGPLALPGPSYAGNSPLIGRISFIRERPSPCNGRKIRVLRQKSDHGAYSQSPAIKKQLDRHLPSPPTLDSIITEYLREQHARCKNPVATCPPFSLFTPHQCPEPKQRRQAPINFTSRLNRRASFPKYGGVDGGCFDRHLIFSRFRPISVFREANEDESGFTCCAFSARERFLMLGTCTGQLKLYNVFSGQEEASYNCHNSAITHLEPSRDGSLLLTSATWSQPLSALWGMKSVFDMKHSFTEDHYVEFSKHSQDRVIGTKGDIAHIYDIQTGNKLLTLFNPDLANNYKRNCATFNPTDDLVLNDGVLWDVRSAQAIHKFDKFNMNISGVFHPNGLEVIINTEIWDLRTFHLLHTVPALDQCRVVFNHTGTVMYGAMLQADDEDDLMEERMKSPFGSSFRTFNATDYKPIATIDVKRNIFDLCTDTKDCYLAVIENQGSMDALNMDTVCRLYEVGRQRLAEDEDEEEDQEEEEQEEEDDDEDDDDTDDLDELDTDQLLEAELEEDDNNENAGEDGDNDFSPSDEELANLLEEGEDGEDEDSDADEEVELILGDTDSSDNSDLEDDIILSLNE

T1 sequence (Q15910 whole entry H689A): as the sequence (Q15910 whole entry) above, with H689A counted along it

- binding result [1]: binds
- binding result [2]: binds
- binding result [3]: binds
B1: retinoic acid-related orphan nuclear receptor α (RORα) wild type (receptor, UniProt P35398-2 1-523, looked up)
chain: MESAPAAPDPAASEPGSSGADAAAGSRETPLNQESARKSEPPAPVRRQSYSSTSRGISVTKKTHTSQIEIIPCKICGDKSSGIHYGVITCEGCKGFFRRSQQSNATYSCPRQKNCLIDRTSRNRCQHCRLQKCLAVGMSRDAVKFGRMSKKQRDSLYAEVQKHRMQQQQRDHQQQPGEAEPLTPTYNISANGLTELHDDLSNYIDGHTPEGSKADSAVSSFYLDIQPSPDQSGLDINGIKPEPICDYTPASGFFPYCSFTNGETSPTVSMAELEHLAQNISKSHLETCQYLREELQQITWQTFLQEEIENYQNKQREVMWQLCAIKITEAIQYVVEFAKRIDGFMELCQNDQIVLLKAGSLEVVFIRMCRAFDSQNNTVYFDGKYASPDVFKSLGCEDFISFVFEFGKSLCSMHLTEDEIALFSAFVLMSADRSWLQEKVKIEKLQQKIQLALQHVLQKNHREDGILTKLICKVSTLRALCGRHTEKLMAFKAIYPDIVRLHFPPLYKELFTSEFEPAMQIDG
modifications: K38 mono-methylated by EZH2 in cells (the fraction methylated is not stated)
notes: Endogenous protein of HEK-293 cells in some co-immunoprecipitations, 3x-Flag-tagged (3x-Flag-CMV-RORα) in others; the tag is not written as a piece; also called RORα WT; Flag-RORα
